B1: KNL1 residues 2,026–2,342 [human] / Mis12 complex (Mis12C), full length: MIS12, PMF1, NSL1, DSN1 [human] (parent complex)
chain 1: SAQNEREKLQIKIDEMDKILKKIDNCLTEMETETKNLEDEEKNNPVEEWDSEMRAAEKELEQLKTEEEELQRNLLELEVQKEQTLAQIDFMQKQRNRTEELLDQLSLSEWDVVEWSDDQAVFTFVYDTIQLTITFEESVVGFPFLDKRYRKIVDVNFQSLLDEDQAPPSSLLVHKLIFQYVEEKESWKKTCTTQHQLPKMLEEFSLVVHHCRLLGEEIEYLKRWGPNYNLMNIDINNNELRLLFSSSAAFAKFEITLFLSAYYPSVPLPSTIQNHVGNTSQDDIATILSKVPLENNYLKNVVKQIYQDLFQDCHFYH
chain 2: MSVDPMTYEAQFFGFTPQTCMLRIYIAFQDYLFEVMQAVEQVILKKLDGIPDCDISPVQIRKCTEKFLCFMKGHFDNLFSKMEQLFLQLILRIPSNILLPEDKCKETPYSEEDFQHLQKEIEQLQEKYKTELCTKQALLAELEEQKIVQAKLKQTLTFFDELHNVGRDHGTSDFRESLVSLVQNSRKLQNIRDNVEKESKRLKIS
chain 3: MAEASSANLGSGCEEKRHEGSSSESVPPGTTISRVKLLDTMVDTFLQKLVAAGSYQRFTDCYKCFYQLQPAMTQQIYDKFIAQLQTSIREEISDIKEEGNLEAVLNALDKIVEEGKVRKEPAWRPSGIPEKDLHSVMAPYFLQQRDTLRRHVQKQEAENQQLADAVLAGRRQVEELQLQVQAQQQAWQALHREQRELVAVLREPE
chain 4: MAGSPELVVLDPPWDKELAAGTESQALVSATPREDFRVRCTSKRAVTEMLQLCGRFVQKLGDALPEEIREPALRDAQWTFESAVQENISINGQAWQEASDNCFMDSDIKVLEDQFDEIIVDIATKRKQYPRKILECVIKTIKAKQEILKQYHPVVHPLDLKYDPDPAPHMENLKCRGETVAKEISEAMKSLPALIEQGEGFSQVLRMQPVIHLQRIHQEVFSSCHRKPDAKPENFITQIETTPTETASRKTSDMVLKRKQTKDCPQRKWYPLRPKKINLDT
chain 5: MTSVTRSEIIDEKGPVMSKTHDHQLESSLSPVEVFAKTSASLEMNQGVSEERIHLGSSPKKGGNCDLSHQERLQSKSLHLSPQEQSASYQDRRQSWRRASMKETNRRKSLHPIHQGITELSRSISVDLAESKRLGCLLLSSFQFSIQKLEPFLRDTKGFSLESFRAKASSLSEELKHFADGLETDGTLQKCFEDSNGKASDFSLEASVAEMKEYITKFSLERQTWDQLLLHYQQEAKEILSRGSTEAKITEVKVEPMTYLGSSQNEVLNTKPDYQKILQNQSKVFDCMELVMDELQGSVKQLQAFMDESTQCFQKVSVQLGKRSMQQLDPSPARKLLKLQLQNPPAIHGSGSGSCQ

Variants of: B1
Assay: ITC; syringe KNL1^WT; cell Mis12C^M2; parent: 1.56 nM

| Kd [nM] | Variant |
| --- | --- |
| 24.8 | chain 3 R195E, chain 3 V198L, chain 5 L290F |

Variants of: B1
Assay: ITC; syringe KNL1^WT; cell Mis12C^M1; parent: -12

| dG | Variant |
| --- | --- |
| -10 | chain 3 R195A, chain 3 V198L, chain 5 L290F |

Variants of: B1
Assay: ITC; syringe KNL1^M2; cell Mis12C^WT; parent: 1.56 nM

| Kd [nM] | Variant |
| --- | --- |
| 109 | chain 1 M231A, chain 1 S247W, chain 1 F250A, chain 1 K252E |

Variants of: B1
Assay: ITC; syringe KNL1^M1; cell Mis12C^WT; parent: 1.56 nM

| Kd [nM] | Variant |
| --- | --- |
| 140 | chain 1 M231A, chain 1 S247W, chain 1 F250A, chain 1 K252A |

From article PMC11189300 (2024)
